Test [1] has as its target T1, human amylin receptor (amylin 3(a) receptor: human calcitonin receptor with RAMP-3) (human, UniProt P30988 25-474; O60896 24-148, limits assumed).
T1 construct: whole, on cells; Whole cells in the luciferase assay (Assay II a); also called hAmylin-R; hAmylinR
T1 sequence (looked up) 1: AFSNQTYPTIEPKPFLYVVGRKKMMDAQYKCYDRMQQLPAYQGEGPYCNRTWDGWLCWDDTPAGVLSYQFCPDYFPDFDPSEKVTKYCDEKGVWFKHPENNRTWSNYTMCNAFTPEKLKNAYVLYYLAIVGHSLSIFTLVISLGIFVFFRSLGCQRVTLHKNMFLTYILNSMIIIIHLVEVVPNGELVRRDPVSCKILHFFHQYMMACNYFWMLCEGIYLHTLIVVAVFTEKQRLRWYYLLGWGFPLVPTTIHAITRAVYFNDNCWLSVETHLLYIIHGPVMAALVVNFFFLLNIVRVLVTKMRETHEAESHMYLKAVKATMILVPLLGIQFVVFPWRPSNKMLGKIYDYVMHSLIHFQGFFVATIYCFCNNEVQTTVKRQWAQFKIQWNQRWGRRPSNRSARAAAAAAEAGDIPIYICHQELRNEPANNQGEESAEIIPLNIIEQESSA
T1 sequence (looked up) 2: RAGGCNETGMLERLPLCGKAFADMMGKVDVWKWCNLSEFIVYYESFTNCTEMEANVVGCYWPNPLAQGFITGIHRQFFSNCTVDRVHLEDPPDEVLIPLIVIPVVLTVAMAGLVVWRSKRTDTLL
Nature of the test: SPA competition binding on membranes of BHK cells with human calcitonin receptor + RAMP-3; displacement of 125I-rat amylin (Assay V). The method, boiled down: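 SPA beads + BHK amylin 3(a)/CRE-luc membranes, 35 ng/μL final; buffer 50 mM Hepes pH 7.4, 1 mM CaCl2, 5 mM MgCl₂, 0.1% OA, 0.02% Tween20. 120 min, 25° C, shaken; scintillation count. IC₅₀ by one-site binding competition fit, taken as receptor affinity.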

In test [2] the target is T2, human calcitonin receptor (human, UniProt P30988 25-474).
T2 sequence (looked up): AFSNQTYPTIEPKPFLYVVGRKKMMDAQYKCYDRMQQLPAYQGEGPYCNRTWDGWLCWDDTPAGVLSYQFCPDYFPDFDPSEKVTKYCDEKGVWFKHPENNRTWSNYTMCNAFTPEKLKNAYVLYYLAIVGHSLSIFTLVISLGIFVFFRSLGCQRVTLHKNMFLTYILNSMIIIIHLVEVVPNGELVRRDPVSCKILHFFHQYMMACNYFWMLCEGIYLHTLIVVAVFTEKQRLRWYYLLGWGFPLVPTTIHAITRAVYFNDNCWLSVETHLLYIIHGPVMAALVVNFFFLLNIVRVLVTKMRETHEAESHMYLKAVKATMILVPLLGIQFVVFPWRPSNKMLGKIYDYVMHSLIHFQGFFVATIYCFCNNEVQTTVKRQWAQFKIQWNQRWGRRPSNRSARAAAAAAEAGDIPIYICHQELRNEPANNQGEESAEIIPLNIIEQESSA
Nature of the test: cell-based or functional assay.

Numbered stars: 1 amine (or outer) side, 2 acyl side, 3 side chain; on linkers, the order of the positions; unused ones are H or OH. Bridge positions count the residues as written; N and C are the ends. Side chains are listed from the residue outwards. Ends that are not written are not given here. * marks the point of attachment. C20 diacid = O=C(O)CCCCCCCCCCCCCCCCCCC(=O)*; γGlu = O=C(O)[C@H](CCC(=O)[*:2])N[*:1]

B1: N^ε1-[(4S)--4-carboxy-4-(19-carboxynonadecanoylamino)butanoyl]-[Glu14,Arg17,Pro21,Pro27,Pro37]-h-amylin (peptide)
peptide: K([γGlu-C20 diacid])CNTATCATQRLAEFLRHSSPNFGAIPSSTNVGSNTP-NH2
modifications: disulfide 2-7; N-terminus assumed
SMILES: CC[C@H](C)[C@H](NC(=O)[C@H](C)NC(=O)CNC(=O)[C@H](Cc1ccccc1)NC(=O)[C@H](CC(N)=O)NC(=O)[C@@H]1CCCN1C(=O)[C@H](CO)NC(=O)[C@H](CO)NC(=O)[C@H](Cc1c[nH]cn1)NC(=O)[C@H](CCCNC(=N)N)NC(=O)[C@H](CC(C)C)NC(=O)[C@H](Cc1ccccc1)NC(=O)[C@H](CCC(=O)O)NC(=O)[C@H](C)NC(=O)[C@H](CC(C)C)NC(=O)[C@H](CCCNC(=N)N)NC(=O)[C@H](CCC(N)=O)NC(=O)[C@@H](NC(=O)[C@H](C)NC(=O)[C@@H]1CSSC[C@H](NC(=O)[C@@H](N)CCCCNC(=O)CC[C@H](NC(=O)CCCCCCCCCCCCCCCCCCC(=O)O)C(=O)O)C(=O)N[C@@H](CC(N)=O)C(=O)N[C@@H]([C@@H](C)O)C(=O)N[C@@H](C)C(=O)N[C@@H]([C@@H](C)O)C(=O)N1)[C@@H](C)O)C(=O)N1CCC[C@H]1C(=O)N[C@@H](CO)C(=O)N[C@@H](CO)C(=O)N[C@H](C(=O)N[C@@H](CC(N)=O)C(=O)N[C@H](C(=O)NCC(=O)N[C@@H](CO)C(=O)N[C@@H](CC(N)=O)C(=O)N[C@H](C(=O)N1CCC[C@H]1C(N)=O)[C@@H](C)O)C(C)C)[C@@H](C)O
notes: also called compound 12
Take B1: in test [1], the half-maximal inhibitory concentration (IC50) turned out to be 0.142 nM. The “Ratio hCT/hAmylin funct.” value in test [2] amounted to 1.8 ratio.

B2: N^-1-[(4S)-4-carboxy-4-(19-carboxynonadecanoylamino)butanoyl]-Gly[Arg1,Ala14,Arg17,Pro21,Pro27,Pro34]-h-amylin (peptide)
peptide: {C20 diacid-γGlu}-GRCNTATCATQRLAAFLRHSSPNFGAIPSSTNVGPNTY-NH2
modifications: disulfide 3-8 (inferred)
With B2, in test [1], the IC50 came out at 0.114 nM. Moreover, the “Ratio hCT/hAmylin funct.” value in test [2] was 2.1 ratio.

B3: N^-1-[(4S)-4-carboxy-4-(19-carboxynonadecanoylamino)butanoyl]-Gly[Arg1,Ala14,Arg17,Pro21,Pro27,His34]-h-amylin (peptide)
peptide: {C20 diacid-γGlu}-GRCNTATCATQRLAAFLRHSSPNFGAIPSSTNVGHNTY-NH2
modifications: disulfide 3-8 (inferred)
For the molecule B3, in test [1], the concentration for half-maximal inhibition (IC50) worked out at 0.426 nM. Moreover, the “Ratio hCT/hAmylin funct.” value in test [2] is 4.9 ratio.

B4: N^-1-[(4S)-4-carboxy-4-(19-carboxynonadecanoylamino)butanoyl]-Gly[Arg1,His14,Arg17,Pro21,Pro27,Pro34]-h-amylin (peptide)
peptide: {C20 diacid-γGlu}-GRCNTATCATQRLAHFLRHSSPNFGAIPSSTNVGPNTY-NH2
modifications: disulfide 3-8 (inferred)
For the molecule B4, the IC50 in test [1] was determined as 0.217 nM. Further, in test [2], the “Ratio hCT/hAmylin funct.” value was determined as 2.9 ratio.

The record behind these values is patent US20140087995A1 (published 2014).
